According to patent US7838294B2, “Inhibitors of the JNK signal transduction pathway and methods of use” (University of Massachusetts, priority 1997, dated 2010):

Tests used:
JNK1 = molecular target: T1, JNK1 (Homo sapiens, UniProt P45983); assay: Co-immunoprecipitation of JIP-1 with JNK1 in transfected COS-1 cells; type: binding
T1 construct: expressed in transfected cells
Procedure: To test whether JIP-1 and JNK interact in vivo, co-immunoprecipitation analysis was performed. COS-1 cells were mock-transfected or transfected with JIP-1 and JNK1 expression vectors. Constructs expressing epitope (HA) tagged JNK1 have been described previously. Dérijard et al., supra; Sluss et al., supra; Gupta et al., supra. Mammalian JIP-1 expression vectors were constructed by subcloning the JIP-1 cDNA into the XbaI and HindIII sites of pCMV5 and the HindIII and EcoRI sites of pcDNA3 (Invitrogen Inc.). DNA encoding the Flag epitope, -Asp-Tyr-Lys-Asp-Asp-Asp-Asp-Lys- (SEQ ID NO:14) (Immunex Corp.), was inserted into JIP-1 cDNA between the DNA encoding the first two codons of JIP-1 using insertional overlapping polymerase chain reaction (PCR). Ho et al., Gene, 77:51 (1989). Bacterial JIP-1 expression vectors were constructed by subcloning PCR fragments of the JIP-1 cDNA into the EcoRI and XbaI sites of pGEX-3× (Pharmacia LKB Biotechnology Inc.). GST fusion proteins were purified by affinity chromatography on GSH-agarose as described previously. Smith et al., Gene, 67:31 (1988). […]
For the co-immunoprecipitation experiments, transfected or mock-transfected cells were irradiated with or without UV-C (40 J/m^2) and incubated for one hour. […] Immune complexes were detected with a second antibody coupled to horseradish peroxidase and enhanced chemiluminescence (Amersham International PLC).

ERK2 [1] = molecular target: ERK2 (Homo sapiens, UniProt P28482); assay: Co-immunoprecipitation of JIP-1 with ERK2 (specificity control); type: binding; conditions: control experiment
Sequence of ERK2 (Homo sapiens, UniProt P28482) (P28482 whole entry, species assumed): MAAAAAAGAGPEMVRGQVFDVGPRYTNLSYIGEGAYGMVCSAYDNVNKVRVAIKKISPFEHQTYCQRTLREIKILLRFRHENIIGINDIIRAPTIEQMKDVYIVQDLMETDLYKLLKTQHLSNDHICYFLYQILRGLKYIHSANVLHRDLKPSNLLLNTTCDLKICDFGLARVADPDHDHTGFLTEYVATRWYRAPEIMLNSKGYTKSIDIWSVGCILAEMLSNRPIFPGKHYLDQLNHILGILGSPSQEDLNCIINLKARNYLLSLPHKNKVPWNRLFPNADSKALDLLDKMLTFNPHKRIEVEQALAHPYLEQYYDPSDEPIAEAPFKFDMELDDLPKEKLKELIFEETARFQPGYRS

ERK2 [2] = assay: Immune complex protein kinase assay: ERK, substrate MBP; type: biochemical, Chinese hamster; conditions: in vitro, 3 μg myelin basic protein
Procedure: To test whether JIP-1 competes with Jun and ATF2 for interaction with JNK, the effect of JIP-1 on transcription factor-mediated phosphorylation of exogenous substrates was analyzed using an in vitro protein kinase assay. In these experiments, Chinese hamster ovary (CHO) cells were serum-starved for one hour. In some experiments, the cells were treated with 10 ng/ml mouse interleukin 1 or 100 nM phorbol myristic acetate. JNK, p38, and ERK protein kinase activity was measured in an immune complex kinase assay using 3 μg of the substrates GST-Jun, GST-ATF2, and myelin basic protein (MBP), respectively. Protein kinase assays were performed using 40 μl 20 mM Hepes (pH 7.4), 20 mM MgCl2, 20 mM β-glycerophosphate, 2 mM dithiothreitol, 0.1 mM sodium orthovanadate, 50 μM [γ-^32P]ATP (10 Ci/mmol). After incubation for 30 minutes at 30° C., phosphorylation of substrates was analyzed by polyacrylamide gel electrophoresis and autoradiography.

[3] = system: c-Jun transcriptional activity; assay: GAL4 luciferase reporter assay in CHO cells: GAL4-c-Jun; type: cell-based, Chinese hamster; conditions: FIG. 4B
Procedure: (§1) In these experiments, CHO cells were cotransfected with constructs encoding the transcription factors and JIP-1 using previously described methods. Dérijard et al., supra; Sluss et al., supra; Gupta et al., supra. A luciferase reporter plasmid was used to monitor the expression of the transcription factors. Transfection efficiency was determined using a β-galactosidase expression vector. Constructs used in these experiments included GAL4 fusions with the c-myc, Sp1 and VP16 activation domains (described in Whitmarsh et al., Science, 269:403 (1995); Davis, Science, 269:403 (1995); Gille et al., Curr. Biol., 5:1191 (1995)). […]
(§2) Transfected cells were activated by treatment with 10% (v/v) fetal calf serum, and luciferase and β-galactosidase activities were measured in cell lysates at 48 hours post-transfection. The data are presented as the ratio of luciferase activity (light units) to β-galactosidase activity (OD units) measured in the cell extracts (mean±SEM (n=3)), and are normalized to the luciferase activity detected in the absence of JBD (FIGS. 4A and 4B) or ATF2 (FIG. 4C).

[4] = system: Elk-1 transcriptional activity; assay: GAL4 luciferase reporter assay in CHO cells: GAL4-Elk-1; type: cell-based, Chinese hamster; conditions: FIG. 4B
Procedure: as §1, §2

T1 sequence (P45983 1-384 isoform P45983-2): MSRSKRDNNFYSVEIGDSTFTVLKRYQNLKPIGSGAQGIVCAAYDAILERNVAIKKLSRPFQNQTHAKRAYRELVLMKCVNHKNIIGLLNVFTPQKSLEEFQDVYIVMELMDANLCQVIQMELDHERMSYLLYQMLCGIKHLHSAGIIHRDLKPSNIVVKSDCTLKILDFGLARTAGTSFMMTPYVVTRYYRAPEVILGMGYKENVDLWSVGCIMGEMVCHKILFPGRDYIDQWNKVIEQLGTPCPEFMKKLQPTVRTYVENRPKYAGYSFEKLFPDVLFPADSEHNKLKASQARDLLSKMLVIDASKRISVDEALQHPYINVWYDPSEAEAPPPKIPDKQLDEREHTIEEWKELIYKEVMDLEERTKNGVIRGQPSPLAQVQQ

B1: JIP-1: 660 amino acid murine cytoplasmic protein that specifically binds JNK (protein)
chain: MAERESGLGGGAASPPAASPFLGLHIASPPNFRLTHDISLEEFEDEDLSEITDECGISLQCKDTLSLRPPRAGLLSAGSSGSAGSRLQAEMLQMDLIDAAGDTPGAEDDEEEEDDELAAQRPGVGPPKAESNQDPAPRSQGQGPGTGSGDTYRPKRPTTLNLFPQVPRSQDTLNNNSLGKKHSWQDRVSRSSSPLKTGEQTPPHEHICLSDELPPQGSPVPTQDRGTSTDSPCRRSAATQMAPPSGPPATAPGGRGHSHRDRIHYQADVRLEATEEIYLTPVQRPPDPAEPTSTFMPPTESRMSVSSDPDPAAYSVTAGRPHPSISEEDEGFDCLSSPERAEPPGGGWRGSLGEPPPPPRASLSSDTSALSYDSVKYTLVVDEHAQLELVSLRPCFGDYSDESDSATVYDNCASASSPYESAIGEEYEEAPQPRPPTCLSEDSTPDEPDVHFSKKFLNVFMSGRSRSSSAESFGLFSCVINGEEHEQTHRAIFRFVPRHEDELELEVDDPLLVELQAEDYWYEAYNMRTGARGVFPAYYAIEVTKEPEHMAALAKNSCVLEISVRGVKIGVKADDALEAKGNKCSHFFQLKNISFCGYHPKNNKYFGFITKHPADHRFACHVFVSEDSTKALAESVGRAFQQFYKQFVEYTCPTEDIYLE
**Q.** Which “co-immunoprecipitation of JIP-1 with JNK1” value (JNK1; COS-1 cells transfected with Flag-JIP-1 and HA-JNK1, protein immunoblot) does the source give for B1 here?
**A.** The value was “detected in JNK1 immunoprecipitates”.

**Q.** What about the “change in amount of JNK/JIP-1 complex on exposure to UV radiation” value (JNK1; UV-C 40 J/m2, one hour, co-immunoprecipitation) of the same molecule?
**A.** Its value is “no significant change”.

**Q.** And the “co-immunoprecipitation of JIP-1 with ERK2” value (ERK2 [1])?
**A.** Its value is “did not co-immunoprecipitate”.

**Q.** And the “phosphorylation of substrate by ERK2” value (ERK2 [2])?
**A.** Its value is “no significant change”.

**Q.** And the “basal transcriptional activity of c-Jun mutated at JNK phosphorylation sites” value ([3]; GAL4-c-Jun (S63A/S73A))?
**A.** The value was “not markedly inhibited”.

**Q.** What about the c-Jun transcriptional activity ([3]; wild type GAL4-c-Jun, CHO cells) of the same molecule?
**A.** The c-Jun transcriptional activity was “Significant inhibition”.

**Q.** What about the “basal transcriptional activity of Elk-1 mutated at JNK phosphorylation sites” value ([4]; GAL4-Elk-1 (S383A)) of the same molecule?
**A.** The value was “not markedly inhibited”.

**Q.** What about the Elk-1 transcriptional activity ([4]; wild type GAL4-Elk-1, CHO cells) of the same molecule?
**A.** Its Elk-1 transcriptional activity is “partial inhibition”.
